Article PMC7948479, “Allostery in the nitric oxide dioxygenase mechanism of flavohemoglobin” (The Journal of Biological Chemistry, 2020)
Read-outs that look alike come from different tables or passages of the source.

Columns and labels:
NADH oxidase activity = format: biochemical; settings: 37 °C; relative to heme content
Method: (§2) NADH oxidase activity was followed spectrophotometrically at 340 nm in a 1.0-ml cuvette containing 90 mM Tris chloride buffer, pH 8.2, 100 μM NADH, 200 μM O2, 0.1 μM FAD, 100 μg/ml BSA, and 0.3 mM EDTA and incubated at 37 °C. […] TMAO reductase activity was assayed by following the absorbance decrease at 340 nm in a 1.0-ml anaerobic reaction containing 12 U Aspergillus niger glucose oxidase, 5 mM glucose, 260 U catalase, 400 mM TMAO, 100 μM NADH, 0.1 μM FAD, 100 μg/ml BSA, and 0.3 mM EDTA in 90 mM Tris chloride pH 8.2 and incubated at 37 °C. […] Methyl viologen reductase activity was assayed by following the formation of the blue cation radical at 603 nm and by applying an extinction coefficient of 13,300 M^−1 cm^−1 in a 1.0-ml anaerobic reaction buffered with 10 mM potassium phosphate, pH 7.0, and containing 12 U glucose oxidase, 5 mM glucose, 260 U catalase, 100 μM NADH, 0.1 μM FAD, 100 μg/ml BSA, 0.3 mM EDTA, and 200 mM sodium chloride and incubated at 37 °C. NO reductase activity was assayed amperometrically at 37 °C in a 1.0-ml anaerobic reaction containing 2 μM NO, 100 μM NADH, 0.1 μM FAD, 12 U glucose oxidase, 5 mM glucose, 260 U catalase, 100 μg/ml BSA, and 0.3 mM EDTA buffered with 10 mM potassium phosphate pH 7.0. CO effects were tested at a final concentration of 50 μM as diluted from a 1 mM stock in water. […]

[1] = Methyl viologen reductase activity; format: biochemical; settings: 37 °C; anaerobic
Method: as §2

ferric cytochrome b5 = assay: Cytochrome b5 reductase activity; format: biochemical, rat; settings: 37 °C; 10 μM ferric cytochrome b5
Text: Reagents were purchased from Sigma-Aldrich Chemical Co (St Louis, MO, USA) unless otherwise stated. DNA primers were synthesized at the University of Cincinnati Medical Center DNA facility. Praxair (Bethlehem, PA, USA) was the supplier of 99.993% O2, 99.999% CO, and 99.98% N2. Bovine liver catalase (260,000 U/ml) was obtained from Roche Applied Science. Recombinant rat cytochrome b5 (soluble form) and murine Ngb were expressed in E. coli and purified essentially as described ([10], [70]). NADH purity (≥95%) was assessed by the ratio of the 340 to 260 nm absorbance with a value of 0.437 equal to 100% reduced.

E. coli flavoHb-NOD [2] = system: E. coli flavoHb-NOD
Method: (§1) NOD activity was measured amperometrically in 100 mM phosphate buffer, pH 7.0, containing 0.3 mM EDTA, 100 μg/ml bovine serum albumin (BSA) (Fraction V), 100 μM NADH, 0.1 μM FAD with NO, O2, and N2 mixtures added as described ([4], [72]). NADH oxidase activity was followed spectrophotometrically at 340 nm in a 1.0-ml cuvette containing 90 mM Tris chloride buffer, pH 8.2, 100 μM NADH, 200 μM O2, 0.1 μM FAD, 100 μg/ml BSA, and 0.3 mM EDTA and incubated at 37 °C. Cytochrome b5 reductase activity was assayed at 37 °C by following the rate of absorbance increase at 555 nm in a 1.0-ml reaction buffered with 90 mM Tris chloride, pH 8.2, and containing 10 μM ferric cytochrome b5, 200 μM O2, 20 μM NADH, 0.1 μM FAD, 100 μg/ml BSA, and 0.3 mM EDTA. TMAO reductase activity was assayed by following the absorbance decrease at 340 nm in a 1.0-ml anaerobic reaction containing 12 U Aspergillus niger glucose oxidase, 5 mM glucose, 260 U catalase, 400 mM TMAO, 100 μM NADH, 0.1 μM FAD, 100 μg/ml BSA, and 0.3 mM EDTA in 90 mM Tris chloride pH 8.2 and incubated at 37 °C. Ngb reductase activity was assayed by following the absorbance increase at 424 nm in a 1.0-ml anaerobic reaction containing 12 U glucose oxidase, 5 mM glucose, 260 U catalase, 5 μM Ngb, 50 μM NADH, 0.1 μM FAD, 100 μg/ml BSA, and 0.3 mM EDTA in 90 mM Tris chloride buffer, pH 8.2, and incubated at 37 °C. Methyl viologen reductase activity was assayed by following the formation of the blue cation radical at 603 nm and by applying an extinction coefficient of 13,300 M^−1 cm^−1 in a 1.0-ml anaerobic reaction buffered with 10 mM potassium phosphate, pH 7.0, and containing 12 U glucose oxidase, 5 mM glucose, 260 U catalase, 100 μM NADH, 0.1 μM FAD, 100 μg/ml BSA, 0.3 mM EDTA, and 200 mM sodium chloride and incubated at 37 °C. NO reductase activity was assayed amperometrically at 37 °C in a 1.0-ml anaerobic reaction containing 2 μM NO, 100 μM NADH, 0.1 μM FAD, 12 U glucose oxidase, 5 mM glucose, 260 U catalase, 100 μg/ml BSA, and 0.3 mM EDTA buffered with 10 mM potassium phosphate pH 7.0. CO effects were tested at a final concentration of 50 μM as diluted from a 1 mM stock in water. All activities are reported relative to the heme content of flavoHb.

[3] = design: method as in PMID 10777548, PMID 10922365; settings: cited from earlier work
flavoHb = system: flavoHb; design: method as in PMID 22948361; settings: cited from earlier work
[4] = design: method as in PMID 7821669; settings: cited from earlier work
E. coli flavoHb-NOD [5] = molecular target: T1, E. coli flavoHb-NOD (Escherichia coli, UniProt P24232); settings: read-out: theoretical Km(O2) (Vmax/k'O2); cited from earlier work
E. coli flavoHb-NOD [6] = settings: entry of O2 into the LT, value assumed for fitting, cited from earlier work
E. coli flavoHb-NOD [7] = molecular target: T1, E. coli flavoHb-NOD; format: biochemical; design: made in house; host or cells: E. coli hmp deletion strain AG103 carrying pUC19hmp
Text: We have formulated a steady-state velocity equation for the catalytic cycle with the activating trigger step (KT) (Equation 1).(1) v= Vmax(a) where a=([NO]^2[O2]^2/K1K2K3KTK4)/(1+([O2]/K1)+([O2]^2/K1K2)+(([O2]^2[NO])/K1K2K3)+(([O2]^2[NO])/K1K2K3KT)+(([O2]^2[NO]^2)/K1K2K3KTK4))
(2) v= Vmax(a)(b) where b=[NO]/(K3+([NO](1+((K2/[O2])(1+([NO]/Ki(NO)))))))
In addition, we have introduced a factor and equilibrium constant Ka(O2) for rare situations in which O2 causes an additional NO-independent activation of catalysis possibly by occupying unique binding sites or cavities (Equation 5).
as §1
Rate constants were estimated from the model kinetic equation using Python programming with successive approximations to optimize fits with varying NO and O2 concentrations. Vmax, K1, K2, KT, and Kii(NO) values were treated as independent variables for a given flavoHb while allowing K3, K4, and Ki(NO) to vary over limited ranges with varying O2 concentration. Kii(NO) was estimated from NO inhibition at saturating O2 concentrations.

B1: WT: wild-type E. coli flavohemoglobin (flavoHb), an NO dioxygenase (NOD) (protein, UniProt P24232 1-396, looked up)
Flavohemoprotein: MLDAQTIATVKATIPLLVETGPKLTAHFYDRMFTHNPELKEIFNMSNQRNGDQREALFNAIAAYASNIENLPALLPAVEKIAQKHTSFQIKPEQYNIVGEHLLATLDEMFSPGQEVLDAWGKAYGVLANVFINREAEIYNENASKAGGWEGTRDFRIVAKTPRSALITSFELEPVDGGAVAEYRPGQYLGVWLKPEGFPHQEIRQYSLTRKPDGKGYRIAVKREEGGQVSNWLHNHANVGDVVKLVAPAGDFFMAVADDTPVTLISAGVGQTPMLAMLDTLAKAGHTAQVNWFHAAENGDVHAFADEVKELGQSLPRFTAHTWYRQPSEADRAKGQFDSEGLMDLSKLEGAFSDPTMQFYLCGPVGFMQFTAKQLVDLGVKQENIHYECFGPHKVL
In the case of B1, the NADH oxidase activity (NADH oxidase activity) is reported as 0.27 s⁻¹, the “methyl viologen reductase activity” value [1] is reported as 0.36 s^−1 and the “cytochrome b5 reductase activity” value (ferric cytochrome b5) is reported as 0.14 s⁻¹. For the same molecule, the “Δv/Δ[NADH]” value (E. coli flavoHb-NOD [2]; 20 °C) was 36 s⁻¹ µM⁻¹, the “Δv/Δ[NADH]” value (E. coli flavoHb-NOD [2]; 20 °C, 130 nM NO) was 30 s⁻¹ µM⁻¹ and the “Δv/Δ[NADH]” value (E. coli flavoHb-NOD [2]; 37 °C) was 59 s⁻¹ µM⁻¹. The “Δv/Δ[NADH]” value (E. coli flavoHb-NOD [2]; 37 °C, 130 nM NO) was 59 s⁻¹ µM⁻¹, the “NO elimination via reduction” value [3] was at most 0.1 s⁻¹ and the “Vmax for Fe^2+NO reduction” value [3] was 0.1 s⁻¹. For the same molecule, the “kET by time-resolved pulse radiolysis” value (flavoHb) was 6800 s⁻¹, the “FAD/FADH2 potential (E^0)” value [4] was under −0.15 V and the “nominal heme mid-point potential” value [4] was −0.125 V. For the same molecule, the Km (E. coli flavoHb-NOD [5]) was about 2000 nM, the K1 (E. coli flavoHb-NOD [6]; 20 °C) was 2 (2) Micromolar and the K1 (E. coli flavoHb-NOD [6]; 37 °C) was 2 (2) Micromolar. For the same molecule, the Vmax/K3 (E. coli flavoHb-NOD [7]) was 2.3e+09 M⁻¹ s⁻¹, the “bimolecular rate constant of ferric–superoxide complex with internalized NO” value (E. coli flavoHb-NOD [7]) was 10^10 M^−1 s^−1 and the “k'NOD estimated from the Vmax/K4 ratio” value (E. coli flavoHb-NOD [7]) was 1 to 2 × 10^10 M^−1 s^−1. The “velocity of NOD activity” value (E. coli flavoHb-NOD [7]) was 8 s⁻¹ and the Ki (E. coli flavoHb-NOD [7]; read-out: Ki(NO) for NO competition with O2 for LT entry) was 300 to 1200 nM.
